Results reported in patent publication US20240067751A1 (KEYMED BIOSCIENCES, published 2024).

Key:
[1] = molecular target: T1, Cynomolgus monkey MASP-2 D4-6 recombinant protein (Cynomolgus monkey, UniProt O00187 298-686 (human entry), limits assumed); experiment: SPR Biacore T200, Flag-tagged Fab captured via anti-Flag antibody on Protein A chip, antigen as analyte, 1:1 fit
T1 construct: Made 'similarly' to the human protein (N-terminal his6 tag)
Experimental: (§1) The surface plasmon resonance (SPR/Biacore T200) technique was used to capture the anti-Flag antibody with Protein A chip. 10 μg/ml purified Fab antibody containing Flag tag was captured on the chip surface, with a capture time of 40 sec and a flow rate of […]. The chip was washed with buffer until the baseline leveled off, then gradient-diluted MASP-2 antigens were injected as the analytes successively to determine the affinity between Fab and different species antigens. The data were fitted by Biacore T200 Evaluation software 3.1 software in Langmuir 1:1 kinetics mode.

[2] = molecular target: T2, human MASP-2 D4-6 recombinant protein (human, UniProt O00187 298-686); experiment: as above
T2 construct: his6 tag fused at the N-terminus, made in HEK293E; also called enzymatic activity domains CCP1-CCP2-SP of human MASP-2
Experimental: as §1

[3] = molecular target: T3, rat MASP-2 D4-6 recombinant protein (rat, UniProt Q9JJS8 298-685); experiment: as above
T3 construct: Made 'similarly' to the human protein (N-terminal his6 tag)
Experimental: as §1

[4] = molecular target: T4, mouse MASP-2 D4-6 recombinant protein (mouse, UniProt Q91WP0 298-685); experiment: as above
T4 construct: Made 'similarly' to the human protein (N-terminal his6 tag)
Experimental: as §1

[5] = molecular target: T1, Cynomolgus monkey MASP-2 D4-6 …; experiment: SPR Biacore T200, antibody on Protein A chip, antigen as analyte, 1:1 fit
Experimental: (§2) Surface plasmon resonance technology (SPR/Biacore T200) was used to capture 0.1 μg/ml of the antibody on the surface of the Protein A chip, with a capture time of 40 seconds and a flow rate of 10 μl/min. The chip was washed with buffer until the baseline leveled off, then gradient-diluted antigen was flowed through the chip at the flow rate of 30 μl/min, with a binding time of 120 sec and a dissociation time of 600 sec. The equilibrium dissociation constant (KD) was obtained by fitting in Langmuir 1:1 kinetics mode.

[6] = molecular target: T2, human MASP-2 D4-6 recombinant protein; experiment: as above
Experimental: as §2

[7] = molecular target: T3, rat MASP-2 D4-6 recombinant protein; experiment: as above
Experimental: as §2

[8] = molecular target: T4, mouse MASP-2 D4-6 recombinant protein; experiment: as above
Experimental: as §2

[9] = molecular target: T1, Cynomolgus monkey MASP-2 D4-6 …; experiment: ELISA, antigen coated, chimeric IgG titrated, anti-human Fc-HRP
[10] = molecular target: T2, human MASP-2 D4-6 recombinant protein; experiment: as above
[11] = molecular target: T3, rat MASP-2 D4-6 recombinant protein; experiment: as above
[12] = molecular target: T4, mouse MASP-2 D4-6 recombinant protein; experiment: as above

T2 sequence (O00187 other isoform, or with tags, fused parts or gaps limits assumed): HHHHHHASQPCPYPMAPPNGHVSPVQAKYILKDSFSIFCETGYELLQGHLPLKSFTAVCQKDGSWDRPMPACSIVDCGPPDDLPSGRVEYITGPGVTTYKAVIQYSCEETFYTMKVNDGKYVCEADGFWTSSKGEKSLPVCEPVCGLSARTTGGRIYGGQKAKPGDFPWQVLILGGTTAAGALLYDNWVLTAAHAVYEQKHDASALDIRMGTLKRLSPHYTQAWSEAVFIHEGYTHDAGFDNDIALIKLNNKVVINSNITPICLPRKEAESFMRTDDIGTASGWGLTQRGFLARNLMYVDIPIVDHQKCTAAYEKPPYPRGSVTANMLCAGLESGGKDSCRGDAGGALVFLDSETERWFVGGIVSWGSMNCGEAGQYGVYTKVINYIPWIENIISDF
T3 sequence (Q9JJS8 other isoform, or with tags, fused parts or gaps limits assumed): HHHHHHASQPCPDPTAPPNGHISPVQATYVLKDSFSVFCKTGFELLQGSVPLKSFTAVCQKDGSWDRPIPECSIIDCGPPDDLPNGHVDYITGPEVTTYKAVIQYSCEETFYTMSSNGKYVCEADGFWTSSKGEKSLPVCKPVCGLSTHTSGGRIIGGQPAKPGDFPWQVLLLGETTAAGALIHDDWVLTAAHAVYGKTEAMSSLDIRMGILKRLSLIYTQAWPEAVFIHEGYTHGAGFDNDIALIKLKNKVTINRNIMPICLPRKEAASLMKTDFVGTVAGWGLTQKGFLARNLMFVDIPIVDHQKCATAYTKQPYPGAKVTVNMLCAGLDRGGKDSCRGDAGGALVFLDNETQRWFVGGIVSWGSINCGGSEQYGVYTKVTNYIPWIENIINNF
T1 sequence (O00187 other isoform, or with tags, fused parts or gaps limits assumed): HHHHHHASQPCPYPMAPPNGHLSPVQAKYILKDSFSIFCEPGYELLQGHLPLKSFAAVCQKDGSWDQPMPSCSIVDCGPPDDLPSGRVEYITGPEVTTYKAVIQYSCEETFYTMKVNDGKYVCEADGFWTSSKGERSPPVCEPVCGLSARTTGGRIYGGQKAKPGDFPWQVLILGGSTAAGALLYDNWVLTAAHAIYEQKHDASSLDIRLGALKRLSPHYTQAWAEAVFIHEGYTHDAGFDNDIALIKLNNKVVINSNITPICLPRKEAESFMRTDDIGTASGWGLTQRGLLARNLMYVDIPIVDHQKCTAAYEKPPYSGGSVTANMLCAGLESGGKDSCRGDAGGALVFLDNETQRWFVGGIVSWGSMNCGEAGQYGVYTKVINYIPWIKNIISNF
T4 sequence (Q91WP0 other isoform, or with tags, fused parts or gaps limits assumed): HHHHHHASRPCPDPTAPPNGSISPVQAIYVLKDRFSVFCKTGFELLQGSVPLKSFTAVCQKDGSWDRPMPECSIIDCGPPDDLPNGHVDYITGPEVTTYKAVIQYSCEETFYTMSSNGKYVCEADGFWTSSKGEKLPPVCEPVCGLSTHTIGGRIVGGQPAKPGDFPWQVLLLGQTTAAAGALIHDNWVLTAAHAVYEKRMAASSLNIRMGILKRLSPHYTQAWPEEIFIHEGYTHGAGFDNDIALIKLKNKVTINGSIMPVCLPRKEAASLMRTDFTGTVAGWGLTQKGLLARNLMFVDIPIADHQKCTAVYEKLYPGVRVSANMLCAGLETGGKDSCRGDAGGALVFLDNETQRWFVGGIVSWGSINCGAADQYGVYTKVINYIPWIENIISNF

| Binder | Kd [1] | koff [1] | kon [1] | Kd [2] | koff [2] | kon [2] | Kd [3] | koff [3] | kon [3] | Kd [4] | koff [4] | kon [4] | Kd [5] | Kd [6] | Kd [7] | Kd [8] | EC50 [9] | EC50 [10] | EC50 [11] | EC50 [12] |
| --- | --- | --- | --- | --- | --- | --- | --- | --- | --- | --- | --- | --- | --- | --- | --- | --- | --- | --- | --- | --- |
| Fab antibody 16B11 (Fab, V domains shown, Purified murine Fab with Flag tag from the phage display library; also called mAb 16B11) VH: QMQLQESGPGLVKPSQSLSLTCTVTGYSITSDYAWNWIRQFPGNKLEWMGYISYSGRTSYNPSLKSRISITRDTSKNQFFLQLNSVTTEDTATYYCARHYGDYWGQGTTLTVSS VL: DIVMTQSQKLMSTSVGDRVSVTCKASQNVGTNVAWYQQKPGQSPKALIYSASYRNSGVPDRFTGSGSGTDFTLTISNVQSEDLAEYFCQQFNTNPLTFGSGTKLEIK | 0.109 nM | 0.000181 s⁻¹ | 1.66e+06 M⁻¹ s⁻¹ | 0.0407 nM | 8.75e-05 s⁻¹ | 2.15e+06 M⁻¹ s⁻¹ | 5.06 nM | 0.00931 s⁻¹ | 1.84e+06 M⁻¹ s⁻¹ | 1.76 nM | 0.00811 s⁻¹ | 4.61e+06 M⁻¹ s⁻¹ |  |  |  |  |  |  |  |  |
| chimeric antibody 28O14 (antibody, V domains shown) VH: QVQLQQSGTELARPGASVRMSCKASGYTFRSHTMHWVKQRPGQGLEWIGYINPSTGYINYNQKFKDKATLTADKSSSTAYMQLSSLTSEDSAVYYCARSNYSYYYGMDYWGQGTSVTVSS VL: DIVMTQSHKFMSTSVGDRVTITCKASQDVNTAVAWYQQKPGQSPKLLIYSASYRYTGVPDRFTGSGSGTDFTFTISSLQAEDLAVYYCQQHYNIPLTFGAGTKLELK |  |  |  |  |  |  |  |  |  |  |  |  | 0.01 nM | 0.09 nM | 162 nM | 767 nM | 0.043 nM | 0.033 nM |  |  |
| Fab antibody 14F11 (Fab, V domains shown, Purified murine Fab with Flag tag from the phage display library; also called mAb 14F11) VH: QVQLQQSGPQLLRPGASVKISCKASGFSFTNHWIHWVKQRPGQGLEWIGMIDPSDSETGLNQKFRDKATLTVDKSSSTAYMHLNSPTSEDSAVYYCARLGIHDGYYIYAMDFWGQGTSVTVSS VL: NIVMTQSPKSMSMSVGERVTLSCKASENVGTYVSWYQQKPEQSPKLLIYGASNRYTGVPDRFTGSGSATDFTLTISSVQAEDLADYHCGQSYSYPLTFGAGTKLELK | 4.66 nM |  |  | 0.172 nM | 0.000163 s⁻¹ | 948000 M⁻¹ s⁻¹ | 0.546 nM | 0.00182 s⁻¹ | 3.34e+06 M⁻¹ s⁻¹ | 18 nM | 1.16 s⁻¹ | 6.44e+07 M⁻¹ s⁻¹ |  |  |  |  |  |  |  |  |
| chimeric antibody 25L15 (antibody, V domains shown) VH: KVKLVESGGDLVKPGGSLKISCAASGFTFSNYAMSWIRQTPDKRLEWVATVSSGGPYTYYPDSVKGRFTISRDNAENTLYLQMSSLRSDDTAIYYCARQIYSDYDVTYWGQGTLVTVSA VL: QIVLSQSPAILSASPGETVTMTCRVSSSVSYMYWLQQKPGSSPKPWIYATSNLASGVPARFSGSGSGTSYSLTITRVEAEDAATYYCQQWSFRPWTFGGGTKLEIK |  |  |  |  |  |  |  |  |  |  |  |  | 0.92 nM | 0.12 nM | 167 nM | 499 nM | 0.008 nM | 0.012 nM | 0.021 nM | 0.023 nM |
| chimeric antibody 3B9 (antibody, V domains shown) VH: DVQLQESGPGLVRPSQSLSLTCTVTGYSITSDYAWNWIRQFPGNKLEWMGYISYSGRTSYNPSLKSRLSITRDTSKNQFFLQLNSVSSADTATYYCAIISTAVDFDYWGQGTTLTVSS VL: QTVLTQSPAIMSASLGERVTMTCTASSSVSSSYLLWYQQKPGSSPKLWIYSTSKLASGVPVRFSGSGSGTSYSLTISSMEADDAATYYCLQYNRSPLTFGAGTKLELK |  |  |  |  |  |  |  |  |  |  |  |  | 0.051 nM | 0.067 nM | 1040 nM | 476 nM | 0.038 nM | 0.025 nM | 1.62 nM | 4.39 nM |
